Reference: publication PMC11489326, “Characterization of lignin-degrading enzyme PmdC, which catalyzes a key step in the synthesis of polymer precursor 2-pyrone-4,6-dicarboxylic acid” (The Journal of Biological Chemistry, 2024)

Substrate: O=C(O)c1ccc(O)c(O)c1
Assay: purified protein
Assay type: biochemical, Comamonas testosteroni
Conditions: pH 7.5, room temperature, anaerobically purified enzyme, dithionite-treated, O2 co-substrate

B1: PmdAB (protocatechuate 4,5-dioxygenase) (Comamonas testosteroni) (protein)
chain 1: MARITASVFTSHVPAIGAAMDMGKTQEAYWAPLFKGYDFSRQWMKDNKPDVIFLVYNDHATAFSLDCIPTFAIGTAAEFQPADEGWGPRPVPKVVGHPDLASHIAQSVIQQDFDLTIVNKMDVDHGLTVPLSLMCGEQDPKTGSWPCPVIPFAVNVVQYPVPTGQRCFNLGRAIRKAVESYDQDINVHIWGTGGMSHQLQGARAGLINKEWDNQFLDLLVENPHGLAQMPHIDYVREAGSEGIELVMWLIARGAMSDVDGPAPLPKVAHRFYHVPASNTAVGHLILENQ
chain 2: MALEKPYLDVPGTIIFDAEQSRKGYWLNQFCMSLMKAENRERFRADERAYLDEWAMTEEQKQAVLARDLNWCMRTGGNIYFLAKIGATDGKSFQQMAGSMTGMTEEEYRAMMMGGGRSAEGNRYVGEDGDAQAHHQPQGSAGNQNKEGN
notes: full-length, codon-optimized, N-terminal His6-PmdA co-expressed with PmdB in E. coli BL21(DE3); purified anaerobically; alpha2beta2 heterotetramer, nonheme Fe(II)
Km: 33.00 ± 12.0 µM
kcat: 107 ± 7.5 s⁻¹
kcat/Km: 3.3e+06 M⁻¹ s⁻¹
